± gives the uncertainty stated by the source.
Experiment: protein stability index of a GFP-peptide fusion (yeast GPS) (PSI 1-4); higher = more stable; sorted into four equal gates, so the index is relative within each strain
Summary of the method: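 For each peptide, the protein stability index sums the read frequency in every gate after multiplying it by the gate number. Read frequencies came from plasmids that were PCR-amplified from each gate and Illumina-sequenced, with reads assigned to strains by barcodes. The gates were four equal bins of GFP/Cherry fluorescence ratio applied to mid-log yeast in leucine-free medium carrying a pooled library of tiled 17-residue yeast protein peptides fused downstream of GFP on a Cherry-expressing plasmid.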

Sequence | protein stability index (doa10∆) | protein stability index (pdr5∆) | protein stability index (san1∆) | protein stability index (ubr1∆)
TGAGKGSIGAEVLQGLL [FAS2] | 3.48 ± 0.088 | 3.56 ± 0.063 | 3.47 ± 0.066 | 2.96 ± 0.067
PLKYAPHLPFSKSENPV [SWI3] | 2.81 ± 0.076 | 2.95 ± 0.078 | 2.66 ± 0.091 | 2.93 ± 0.074
KSVEKTMIKKTTLVTRR [SMC3] | 3.17 ± 0.23 | 3.19 ± 0.12 | 2.91 ± 0.066 | 3.4 ± 0.2
VSFNSKQNEQLHVEQLS [SMC3] | 2.27 ± 0.071 | 2.72 ± 0.087 | 2.47 ± 0.1 | 2.85 ± 0.066
YPESISNELIEHFSHFG [YDL088C/ASM4] | 2.76 ± 0.067 | 3.02 ± 0.048 | 2.89 ± 0.043 | 2.93 ± 0.034
LVDENTDYLYRRLHDEN [YCS4] | 2.68 ± 0.056 | 2.64 ± 0.048 | 2.68 ± 0.063 | 2.24 ± 0.034
ESQLQMDRTSLRKQYSA [SMC3] | 2.47 ± 0.08 | 2.53 ± 0.096 | 2.75 ± 0.067 | 2.86 ± 0.094
FIKFKLIQQVPPGLDAL [CDC53] | 2.29 ± 0.067 | 2.13 ± 0.11 | 2.23 ± 0.13 | 2.27 ± 0.095
PDMYERKVENIRTILVN [MED7] | 1.32 ± 0.045 | 1.65 ± 0.045 | 1.46 ± 0.096 | 1.36 ± 0.036
SFKGSPNERKAKQAKIR [SNF2] | 3.36 ± 0.12 | 3.56 ± 0.12 | 3.39 ± 0.18 | 3.12 ± 0.15
ISIYNMLPPKSVKFTHI [SSN2] | 1.64 ± 0.069 | 1.76 ± 0.057 | 2.13 ± 0.066 | 2.29 ± 0.034
SNDERIVKRLYEYGAVS [BRR2] | 2.71 ± 0.076 | 2.97 ± 0.07 | 3.14 ± 0.056 | 3.14 ± 0.049
LRYYKNIWLNNKIINWE [NUT1] | 3.56 ± 0.18 | 2.67 ± 0.087 | 2.2 ± 0.22 | 3.39 ± 0.16
LRLDGHTKSDERSELLR [SNF2] | 3.24 ± 0.081 | 3.18 ± 0.084 | 3.38 ± 0.079 | 3.33 ± 0.078
IFFNIPLVAHLGLYVGV [YJL039C/NUP192] | 1.42 ± 0.044 | 1.4 ± 0.059 | 1.27 ± 0.1 | 1.33 ± 0.048
RNVGKTLVNKSTGLKSA [RPS1A] | 2.81 ± 0.098 | 2.72 ± 0.097 | 2.59 ± 0.12 | 2.96 ± 0.086
RFVIWTEAAFTKLDQVW [RPL4A] | 3.18 ± 0.11 | 2.39 ± 0.096 | 2.28 ± 0.24 | 2.39 ± 0.13
SQEQGMGMDLYKTSKAA [FAS1] | 3.05 ± 0.086 | 3.15 ± 0.07 | 2.72 ± 0.059 | 3.3 ± 0.057
SVTVSQGNYVTEDIREG [YMR129W/POM152] | 2.82 ± 0.061 | 2.91 ± 0.064 | 2.87 ± 0.061 | 2.85 ± 0.05
RMLSSILDINVSSSKNK [SWP82] | 2.71 ± 0.051 | 2.9 ± 0.051 | 2.49 ± 0.059 | 2.61 ± 0.032
RAFTKKVSSASAAASES [RPL16B] | 2.42 ± 0.065 | 2.19 ± 0.052 | 2.16 ± 0.065 | 1.85 ± 0.054
HVDSLIEDFVDGIANSK [SRB7] | 3.06 ± 0.1 | 3.3 ± 0.077 | 3.04 ± 0.059 | 3.08 ± 0.057
KKNNKIKESSKKIKGKS [SRP21] | 3.07 ± 0.1 |  | 3.26 ± 0.052 | 
KYMVKGGLSGEESIKIY [UBP6] | 2.32 ± 0.13 | 2.47 ± 0.1 | 2.36 ± 0.093 | 2.67 ± 0.07
HLSYCSNLTIYPIYELL [GRR1] | 2.54 ± 0.071 | 2.87 ± 0.1 | 3.17 ± 0.062 | 3.06 ± 0.074
SNLKISLVKYPELLDSL [SWI1] | 2.76 ± 0.074 | 2.69 ± 0.058 | 2.71 ± 0.074 | 2.96 ± 0.056

Sequence | protein stability index (doa10∆) | protein stability index (pdr5∆) | protein stability index (san1∆) | protein stability index (ubr1∆)
IMNVLSEGFEPTFSTHA [PRP8] | 2.86 ± 0.096 | 2.94 ± 0.075 | 2.57 ± 0.07 | 2.67 ± 0.069
LLTCYELEKKYHGNECE [SRB8] | 2.71 ± 0.082 | 3 ± 0.061 | 3.3 ± 0.068 | 3.21 ± 0.055
YFKLDLTSDLVYFGDEN [RRI2] | 2.09 ± 0.15 | 2.47 ± 0.3 |  | 1.48 ± 0.08
NVKVIMATNRADTLDPA [RPT3] | 2.67 ± 0.1 | 2.07 ± 0.086 | 1.94 ± 0.22 | 2.44 ± 0.057
LETLFNRWHSESWANQL [FAS2] | 2.81 ± 0.055 | 2.89 ± 0.076 | 2.87 ± 0.055 | 3.02 ± 0.056
KELMLQSKKLIEEKLSS [YIL149C/MLP2] | 2.95 ± 0.12 | 2.96 ± 0.11 | 2.72 ± 0.11 | 3.05 ± 0.07
DKFRKACSSSGRETILS [SIR3] | 1.94 ± 0.042 | 2.08 ± 0.042 | 1.83 ± 0.073 | 2.64 ± 0.046
RLLSALGPRGVSITPGK [SRP21] | 2.97 ± 0.078 | 3.04 ± 0.074 | 3.29 ± 0.078 | 2.93 ± 0.054
EDLHEKNDSAEVRQETQ [NUT1] | 3.48 ± 0.1 | 3.28 ± 0.2 | 3.13 ± 0.083 | 3.53 ± 0.075
FLLRRVKADVEKSLLPK [ISW2] | 3.19 ± 0.13 | 3.05 ± 0.17 | 3.02 ± 0.079 | 2.94 ± 0.1
LFHSCTRIQYVDFACCT [GRR1] | 2.56 ± 0.12 | 2.44 ± 0.067 | 2.2 ± 0.075 | 2.21 ± 0.063
LGKVRFANYKLLLKKII [SRB4] | 1.71 ± 0.063 | 1.62 ± 0.05 | 1.43 ± 0.14 | 1.53 ± 0.044
ILDKIFYGVLDQGNGWL [RPN6] | 3.31 ± 0.096 | 2.65 ± 0.069 | 2.45 ± 0.059 | 3.11 ± 0.061
GCLNFVDENDEVLLAGF [RPS23A] | 1.3 ± 0.083 | 1.53 ± 0.074 | 1.5 ± 0.095 | 1.27 ± 0.068
SYDFLPLSNIKALLFFN [RPN12] | 2.14 ± 0.047 | 1.96 ± 0.048 | 1.42 ± 0.08 | 1.82 ± 0.044
KLQSWDKVSSCFPQYVN [NNF1] | 1.42 ± 0.099 | 1.94 ± 0.09 | 1.45 ± 0.15 | 2.68 ± 0.1
YSSYIYKVLKQTHPDTG [HTB1] | 2.58 ± 0.065 | 2.05 ± 0.051 | 1.7 ± 0.074 | 1.81 ± 0.045
NDIHLRFMRFLADRDEF [ECM29] | 2.44 ± 0.065 | 2.24 ± 0.059 | 2.21 ± 0.16 | 2.5 ± 0.038
HLNFPNVKFLRIFISNV [SNF12] | 1.79 ± 0.071 | 1.26 ± 0.094 | 1.27 ± 0.13 | 1.19 ± 0.087
LVAKLKKVKSASKKSGG [SMC4] | 2.4 ± 0.074 | 2.62 ± 0.085 | 2.13 ± 0.12 | 2.45 ± 0.052
ISPDPNLSIDEVAVPDR [RPO31] | 2.87 ± 0.089 | 2.76 ± 0.084 | 3.23 ± 0.069 | 2.95 ± 0.049
VESPDKNVRFRVLQLLA [YCG1] | 1.09 ± 0.098 | 1.4 ± 0.12 | 1.18 ± 0.13 | 1.65 ± 0.13
GPHKGKAPRILSTGRKF [RPL18A] | 2.81 ± 0.26 |  | 3.21 ± 0.16 | 2.92 ± 0.13
VVAKLEDKRKVRSAEYY [RPL16B] | 3.49 ± 0.1 | 3.58 ± 0.11 | 3.15 ± 0.12 | 3.37 ± 0.14
LSKMRDSVLQLASFEKT [RPO31] | 3.12 ± 0.13 | 2.97 ± 0.079 | 2.91 ± 0.11 | 3.01 ± 0.11
